From paper PMC2875016

Key:
[1] = target: HpNikR mutant M5 (H74G, H75G) (Helicobacter pylori); experiment: crystal structure
[2] = target: HpNikR mutant M6 (C96S) (Helicobacter pylori); experiment: crystal structure

Substance | stoichiometry N [1] | stoichiometry N [2]
HpNikR mutant M5 (H74G, H75G) (natural protein) | 4 | 
HpNikR mutant M6 (C96S) (natural protein) |  | 4
